Experiment [1] deals with CdiI3937-2-T18 (bacterial two-hybrid fusion) (Dickeya dadantii 3937) (UniProt E0SDG7). Kind of experiment: two-hybrid.
The target of experiment [2] is CdiI536-T18 (bacterial two-hybrid fusion) (E. coli UPEC 536). As to the kind of experiment: two-hybrid.

Bounds are passed on as bounds.

Chain of UniProt E0SDG7 (E0SDG7 whole entry, the tested form may be a part): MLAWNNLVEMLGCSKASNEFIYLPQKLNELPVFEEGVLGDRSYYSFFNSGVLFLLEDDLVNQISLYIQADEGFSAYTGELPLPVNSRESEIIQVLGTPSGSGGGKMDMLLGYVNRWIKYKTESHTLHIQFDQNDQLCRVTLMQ

Consider “T25-CdiA-CT3937-2 (bacterial two-hybrid fusion) (from UniProt E0SDG8 1-3326) (domain or fragment)”, for which, in experiment [1], the β-galactosidase activity was more than 300 units.
“T25-CdiA-CT536 (bacterial two-hybrid fusion) (domain or fragment)” had a β-galactosidase activity in experiment [2] of more than 300 units.

The record behind these values is article PMC3058911.
